Data reported in patent US20220195407, “OPTIMIZATION OF ENGINEERED MEGANUCLEASES FOR RECOGNITION SEQUENCES” (Precision BioSciences, Inc., published 2022).

Key:
Test in all cases: cell_activity; CHO iGFFP reporter
[1] = biological target: T1, LOX 3-4m.1123 (artificial (I-CreI derived))
T1 chain: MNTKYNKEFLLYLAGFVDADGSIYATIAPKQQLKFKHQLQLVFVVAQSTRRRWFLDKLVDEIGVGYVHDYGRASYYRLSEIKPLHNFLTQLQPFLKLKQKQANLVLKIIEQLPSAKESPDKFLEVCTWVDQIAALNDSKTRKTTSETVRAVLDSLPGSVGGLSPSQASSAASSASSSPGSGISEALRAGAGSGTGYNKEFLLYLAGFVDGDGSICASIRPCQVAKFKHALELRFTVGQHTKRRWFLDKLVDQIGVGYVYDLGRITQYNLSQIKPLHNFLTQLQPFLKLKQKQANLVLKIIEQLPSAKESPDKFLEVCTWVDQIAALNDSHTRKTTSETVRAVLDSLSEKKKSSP
Source text: (§1) A CHO cell reporter system (see WO/2012/167192, FIG. 3) was used to determine whether the engineered meganucleases generated in these studies could recognize and cleave the modified LOX 3-4 recognition sequences in Table 87. To perform the assay, a pair of CHO cell reporter lines were produced, which carried a non-functional Green Fluorescent Protein (GFP) gene expression cassette integrated into the genome of the cell. The GFP gene in each cell line was interrupted by a pair of recognition sequences such that intracellular cleavage of either recognition sequence by a meganuclease would stimulate a homologous recombination event resulting in a functional GFP gene. In both cell lines, one of the recognition sequences was derived from the LOX 3-4 recognition sequence (i.e., those sequences disclosed in Table 87), and the second recognition sequence was specifically recognized by a control meganuclease called “CHO 23/24.” CHO reporter cells comprising a recognition sequence derived from the LOX 3-4 recognition sequence and the CHO 23/24 recognition sequence are referred to herein as “test cells.”
(§2) Novel engineered meganucleases derived from the LOX 3-4x.109 meganuclease were prepared by making amino acid substitutions at one or more positions in the first subunit and one or more positions in the second subunit. These engineered meganucleases were then evaluated for cleavage of the LOX 3-4 recognition sequence modified to have an ACGC center sequence (SEQ ID NO: 90) in the CHO reporter assay according to Example 1.

[2] = biological target: T2, LOX 3-4m.1125 (artificial (I-CreI derived))
T2 chain: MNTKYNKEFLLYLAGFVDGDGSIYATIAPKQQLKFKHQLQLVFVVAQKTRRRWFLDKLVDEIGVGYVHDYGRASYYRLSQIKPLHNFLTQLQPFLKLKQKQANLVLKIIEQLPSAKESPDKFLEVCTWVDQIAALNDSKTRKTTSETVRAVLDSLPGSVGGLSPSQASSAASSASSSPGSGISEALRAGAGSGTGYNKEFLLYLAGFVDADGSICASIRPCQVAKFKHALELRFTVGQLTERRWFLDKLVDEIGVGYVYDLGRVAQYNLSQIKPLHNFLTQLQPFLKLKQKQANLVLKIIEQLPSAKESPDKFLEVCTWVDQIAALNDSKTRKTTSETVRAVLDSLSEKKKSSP
Source text: as §1, §2

[3] = biological target: T3, LOX 3-4m.1052 (artificial (I-CreI derived))
T3 chain: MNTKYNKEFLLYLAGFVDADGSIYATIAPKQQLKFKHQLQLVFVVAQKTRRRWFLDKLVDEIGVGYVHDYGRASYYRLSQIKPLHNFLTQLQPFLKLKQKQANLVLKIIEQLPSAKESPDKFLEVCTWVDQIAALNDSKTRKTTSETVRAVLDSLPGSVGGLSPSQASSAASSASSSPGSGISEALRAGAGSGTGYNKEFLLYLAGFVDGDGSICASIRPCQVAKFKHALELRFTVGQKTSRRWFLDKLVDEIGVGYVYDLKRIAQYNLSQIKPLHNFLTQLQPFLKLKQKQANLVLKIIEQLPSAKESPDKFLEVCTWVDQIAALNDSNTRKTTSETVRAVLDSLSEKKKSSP
Source text: as §1, §2

[4] = biological target: T4, LOX 3-4m.1069 (artificial (I-CreI derived))
T4 chain: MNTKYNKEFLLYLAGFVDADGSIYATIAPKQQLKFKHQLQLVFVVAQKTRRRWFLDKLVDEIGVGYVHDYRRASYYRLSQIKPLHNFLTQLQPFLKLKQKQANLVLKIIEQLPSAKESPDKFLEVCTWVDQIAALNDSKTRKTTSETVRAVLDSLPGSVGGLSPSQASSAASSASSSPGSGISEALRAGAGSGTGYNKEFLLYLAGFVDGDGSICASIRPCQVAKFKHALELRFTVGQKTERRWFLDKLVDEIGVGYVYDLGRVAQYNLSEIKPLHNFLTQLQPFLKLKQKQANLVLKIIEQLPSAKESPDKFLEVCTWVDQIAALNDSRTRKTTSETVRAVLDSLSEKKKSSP
Source text: as §1, §2

[5] = biological target: T5, LOX 3-4m.1947 (artificial (I-CreI derived))
T5 chain: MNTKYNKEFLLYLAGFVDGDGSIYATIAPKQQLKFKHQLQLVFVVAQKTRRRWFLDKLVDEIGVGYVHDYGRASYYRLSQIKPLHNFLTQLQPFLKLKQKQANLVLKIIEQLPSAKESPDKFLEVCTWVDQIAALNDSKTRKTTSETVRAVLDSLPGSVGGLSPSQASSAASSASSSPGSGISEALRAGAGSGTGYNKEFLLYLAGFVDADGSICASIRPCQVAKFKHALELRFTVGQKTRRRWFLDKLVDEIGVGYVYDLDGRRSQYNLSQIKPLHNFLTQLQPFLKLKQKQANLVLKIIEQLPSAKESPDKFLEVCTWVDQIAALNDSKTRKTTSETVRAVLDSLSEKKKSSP
Source text: as §1
(§3) Novel engineered meganucleases derived from the LOX 3-4x.109 meganuclease were prepared by making amino acid substitutions at one or more positions in the first subunit and one or more positions in the second subunit. In addition, an R residue was inserted following position 264, which corresponds to position 73 of wild-type I-CreI.

[6] = biological target: T6, LOX 3-4m.1941 (artificial (I-CreI derived))
T6 chain: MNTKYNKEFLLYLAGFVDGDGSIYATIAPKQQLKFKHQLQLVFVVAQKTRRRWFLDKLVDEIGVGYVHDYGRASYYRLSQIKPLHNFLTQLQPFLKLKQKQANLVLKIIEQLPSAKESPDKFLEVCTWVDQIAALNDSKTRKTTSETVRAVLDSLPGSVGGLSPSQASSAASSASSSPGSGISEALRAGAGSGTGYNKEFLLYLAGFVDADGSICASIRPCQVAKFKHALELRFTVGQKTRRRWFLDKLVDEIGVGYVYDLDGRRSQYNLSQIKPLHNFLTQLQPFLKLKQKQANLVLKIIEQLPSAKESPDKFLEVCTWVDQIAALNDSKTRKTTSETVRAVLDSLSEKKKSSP
Source text: as §1, §3

[7] = biological target: T7, LOX 3-4m.1946 (artificial (I-CreI derived))
T7 chain: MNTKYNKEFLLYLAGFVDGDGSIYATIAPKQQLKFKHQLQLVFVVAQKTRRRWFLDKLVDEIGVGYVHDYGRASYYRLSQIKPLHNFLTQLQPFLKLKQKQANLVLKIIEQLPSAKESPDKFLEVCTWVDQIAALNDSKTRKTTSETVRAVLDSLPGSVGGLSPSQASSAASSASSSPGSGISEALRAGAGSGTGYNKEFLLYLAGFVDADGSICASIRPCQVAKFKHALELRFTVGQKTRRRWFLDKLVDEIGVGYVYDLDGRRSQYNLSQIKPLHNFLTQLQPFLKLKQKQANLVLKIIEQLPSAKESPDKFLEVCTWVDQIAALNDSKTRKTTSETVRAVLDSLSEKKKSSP
Source text: as §1, §3

[8] = biological target: T8, LOX 3-4m.1876 (artificial (I-CreI derived))
T8 chain: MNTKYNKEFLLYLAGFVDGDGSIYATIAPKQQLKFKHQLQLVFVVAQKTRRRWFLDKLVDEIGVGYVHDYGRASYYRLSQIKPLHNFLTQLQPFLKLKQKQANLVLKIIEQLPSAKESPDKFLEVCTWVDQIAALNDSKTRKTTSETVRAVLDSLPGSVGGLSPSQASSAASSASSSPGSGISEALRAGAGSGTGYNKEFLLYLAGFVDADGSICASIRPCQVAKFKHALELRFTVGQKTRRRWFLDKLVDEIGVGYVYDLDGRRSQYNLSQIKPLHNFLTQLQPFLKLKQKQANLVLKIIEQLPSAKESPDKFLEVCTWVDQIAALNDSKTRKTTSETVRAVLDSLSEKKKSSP
Source text: as §1, §3

[9] = biological target: T9, LOX 3-4m.1153 (artificial (I-CreI derived))
T9 chain: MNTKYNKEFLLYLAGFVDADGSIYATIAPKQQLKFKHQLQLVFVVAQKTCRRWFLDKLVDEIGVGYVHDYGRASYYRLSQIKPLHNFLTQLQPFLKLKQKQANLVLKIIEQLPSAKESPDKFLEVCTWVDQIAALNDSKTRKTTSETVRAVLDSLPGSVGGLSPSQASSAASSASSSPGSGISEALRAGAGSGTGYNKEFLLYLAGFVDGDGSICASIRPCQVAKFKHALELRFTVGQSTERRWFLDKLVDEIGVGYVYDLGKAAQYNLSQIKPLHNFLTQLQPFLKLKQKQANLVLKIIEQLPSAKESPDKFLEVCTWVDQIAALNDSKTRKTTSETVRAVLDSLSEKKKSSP
Source text: as §1
as §2, with “ACGT” for “ACGC”, “136)” for “90)”

[10] = biological target: T10, LOX 3-4m.1206 (artificial (I-CreI derived))
T10 chain: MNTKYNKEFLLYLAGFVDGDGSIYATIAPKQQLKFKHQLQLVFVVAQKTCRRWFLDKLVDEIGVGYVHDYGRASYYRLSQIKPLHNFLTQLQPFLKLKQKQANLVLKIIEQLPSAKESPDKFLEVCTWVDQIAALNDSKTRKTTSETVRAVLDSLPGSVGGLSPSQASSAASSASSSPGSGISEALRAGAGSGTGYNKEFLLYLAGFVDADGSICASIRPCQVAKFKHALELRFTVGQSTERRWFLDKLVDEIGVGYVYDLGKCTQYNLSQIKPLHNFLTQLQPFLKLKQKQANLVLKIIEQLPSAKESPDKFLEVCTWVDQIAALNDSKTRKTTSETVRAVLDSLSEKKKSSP
Source text: as §1
as §2, with “ACGT” for “ACGC”, “136)” for “90)”

[11] = biological target: T11, LOX 3-4m.1158 (artificial (I-CreI derived))
T11 chain: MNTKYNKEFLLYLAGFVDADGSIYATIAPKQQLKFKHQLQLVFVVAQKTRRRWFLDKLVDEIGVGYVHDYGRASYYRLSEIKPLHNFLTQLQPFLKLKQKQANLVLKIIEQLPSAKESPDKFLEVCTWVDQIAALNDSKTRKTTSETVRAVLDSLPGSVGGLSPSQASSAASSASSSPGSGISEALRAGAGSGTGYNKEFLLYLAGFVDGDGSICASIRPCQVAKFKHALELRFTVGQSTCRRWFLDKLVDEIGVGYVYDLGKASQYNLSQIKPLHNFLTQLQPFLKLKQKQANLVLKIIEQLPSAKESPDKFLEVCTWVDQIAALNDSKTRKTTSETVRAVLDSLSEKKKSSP
Source text: as §1
as §2, with “ACGT” for “ACGC”, “136)” for “90)”

[12] = biological target: T12, LOX 3-4m.1225 (artificial (I-CreI derived))
T12 chain: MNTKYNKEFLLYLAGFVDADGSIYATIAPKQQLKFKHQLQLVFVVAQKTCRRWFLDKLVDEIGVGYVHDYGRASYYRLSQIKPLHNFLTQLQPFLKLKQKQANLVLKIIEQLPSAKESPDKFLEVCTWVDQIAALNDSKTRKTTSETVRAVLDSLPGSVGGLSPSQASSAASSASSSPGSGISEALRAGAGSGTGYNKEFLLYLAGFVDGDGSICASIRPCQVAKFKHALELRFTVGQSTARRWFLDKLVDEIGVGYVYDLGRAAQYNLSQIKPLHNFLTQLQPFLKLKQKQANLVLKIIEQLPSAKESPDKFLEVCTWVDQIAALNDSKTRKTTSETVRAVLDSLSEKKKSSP
Source text: as §1
as §2, with “ACGT” for “ACGC”, “136)” for “90)”

B1: LOX 3-4 ACGC (dsDNA)
DNA 1: GTATAGCATACGCTATACGAAG
DNA 2: CTTCGTATAGCGTATGCTATAC
Q: Which results are given for B1?
A: activity [1]: 9.56 % GFP; activity [2]: 10.4 % GFP; activity [3]: 9.34 % GFP; activity [4]: 10.3 % GFP

B2: LOX 3-4 ACGG (dsDNA)
DNA 1: GTATAGCATACGGTATACGAAG
DNA 2: CTTCGTATACCGTATGCTATAC
Q: What does the source list for B2?
A: activity [5]: 10.5 % GFP; activity [6]: 10.1 % GFP; activity [7]: 10.8 % GFP; activity [8]: 9.6 % GFP

B3: LOX 3-4 ACGT (dsDNA)
DNA 1: GTATAGCATACGTTATACGAAG
DNA 2: CTTCGTATAACGTATGCTATAC
Q: How did the activity [9] turn out when B3 was run?
A: 10.3 % GFP

Q: What about the activity [10] of the same binder?
A: 9.84 % GFP

Q: And the activity [11]?
A: 9.19 % GFP

Q: What about the activity [12] of the same binder?
A: 10.6 % GFP
